The source of these data is PMC2654154, “Molecular Basis of Filamin A-FilGAP Interaction and Its Impairment in Congenital Disorders Associated with Filamin A Mutations” (PLoS ONE, 2009).

Data set [1] addresses FilGAP (Homo sapiens) (UniProt Q8N264). As to conditions: cited from earlier work.
The target in data set [2] is T1, FLAG-tagged full-length FLNa (filamin A), wild type (human, UniProt P21333 1-2647).
T1 construct: filamin A (FLNa), human, full length; also called FLAG-FLNa; WT FLAG-FLNa; source: Sf9 insect cells (baculovirus), purified
T1 sequence (P21333 whole entry): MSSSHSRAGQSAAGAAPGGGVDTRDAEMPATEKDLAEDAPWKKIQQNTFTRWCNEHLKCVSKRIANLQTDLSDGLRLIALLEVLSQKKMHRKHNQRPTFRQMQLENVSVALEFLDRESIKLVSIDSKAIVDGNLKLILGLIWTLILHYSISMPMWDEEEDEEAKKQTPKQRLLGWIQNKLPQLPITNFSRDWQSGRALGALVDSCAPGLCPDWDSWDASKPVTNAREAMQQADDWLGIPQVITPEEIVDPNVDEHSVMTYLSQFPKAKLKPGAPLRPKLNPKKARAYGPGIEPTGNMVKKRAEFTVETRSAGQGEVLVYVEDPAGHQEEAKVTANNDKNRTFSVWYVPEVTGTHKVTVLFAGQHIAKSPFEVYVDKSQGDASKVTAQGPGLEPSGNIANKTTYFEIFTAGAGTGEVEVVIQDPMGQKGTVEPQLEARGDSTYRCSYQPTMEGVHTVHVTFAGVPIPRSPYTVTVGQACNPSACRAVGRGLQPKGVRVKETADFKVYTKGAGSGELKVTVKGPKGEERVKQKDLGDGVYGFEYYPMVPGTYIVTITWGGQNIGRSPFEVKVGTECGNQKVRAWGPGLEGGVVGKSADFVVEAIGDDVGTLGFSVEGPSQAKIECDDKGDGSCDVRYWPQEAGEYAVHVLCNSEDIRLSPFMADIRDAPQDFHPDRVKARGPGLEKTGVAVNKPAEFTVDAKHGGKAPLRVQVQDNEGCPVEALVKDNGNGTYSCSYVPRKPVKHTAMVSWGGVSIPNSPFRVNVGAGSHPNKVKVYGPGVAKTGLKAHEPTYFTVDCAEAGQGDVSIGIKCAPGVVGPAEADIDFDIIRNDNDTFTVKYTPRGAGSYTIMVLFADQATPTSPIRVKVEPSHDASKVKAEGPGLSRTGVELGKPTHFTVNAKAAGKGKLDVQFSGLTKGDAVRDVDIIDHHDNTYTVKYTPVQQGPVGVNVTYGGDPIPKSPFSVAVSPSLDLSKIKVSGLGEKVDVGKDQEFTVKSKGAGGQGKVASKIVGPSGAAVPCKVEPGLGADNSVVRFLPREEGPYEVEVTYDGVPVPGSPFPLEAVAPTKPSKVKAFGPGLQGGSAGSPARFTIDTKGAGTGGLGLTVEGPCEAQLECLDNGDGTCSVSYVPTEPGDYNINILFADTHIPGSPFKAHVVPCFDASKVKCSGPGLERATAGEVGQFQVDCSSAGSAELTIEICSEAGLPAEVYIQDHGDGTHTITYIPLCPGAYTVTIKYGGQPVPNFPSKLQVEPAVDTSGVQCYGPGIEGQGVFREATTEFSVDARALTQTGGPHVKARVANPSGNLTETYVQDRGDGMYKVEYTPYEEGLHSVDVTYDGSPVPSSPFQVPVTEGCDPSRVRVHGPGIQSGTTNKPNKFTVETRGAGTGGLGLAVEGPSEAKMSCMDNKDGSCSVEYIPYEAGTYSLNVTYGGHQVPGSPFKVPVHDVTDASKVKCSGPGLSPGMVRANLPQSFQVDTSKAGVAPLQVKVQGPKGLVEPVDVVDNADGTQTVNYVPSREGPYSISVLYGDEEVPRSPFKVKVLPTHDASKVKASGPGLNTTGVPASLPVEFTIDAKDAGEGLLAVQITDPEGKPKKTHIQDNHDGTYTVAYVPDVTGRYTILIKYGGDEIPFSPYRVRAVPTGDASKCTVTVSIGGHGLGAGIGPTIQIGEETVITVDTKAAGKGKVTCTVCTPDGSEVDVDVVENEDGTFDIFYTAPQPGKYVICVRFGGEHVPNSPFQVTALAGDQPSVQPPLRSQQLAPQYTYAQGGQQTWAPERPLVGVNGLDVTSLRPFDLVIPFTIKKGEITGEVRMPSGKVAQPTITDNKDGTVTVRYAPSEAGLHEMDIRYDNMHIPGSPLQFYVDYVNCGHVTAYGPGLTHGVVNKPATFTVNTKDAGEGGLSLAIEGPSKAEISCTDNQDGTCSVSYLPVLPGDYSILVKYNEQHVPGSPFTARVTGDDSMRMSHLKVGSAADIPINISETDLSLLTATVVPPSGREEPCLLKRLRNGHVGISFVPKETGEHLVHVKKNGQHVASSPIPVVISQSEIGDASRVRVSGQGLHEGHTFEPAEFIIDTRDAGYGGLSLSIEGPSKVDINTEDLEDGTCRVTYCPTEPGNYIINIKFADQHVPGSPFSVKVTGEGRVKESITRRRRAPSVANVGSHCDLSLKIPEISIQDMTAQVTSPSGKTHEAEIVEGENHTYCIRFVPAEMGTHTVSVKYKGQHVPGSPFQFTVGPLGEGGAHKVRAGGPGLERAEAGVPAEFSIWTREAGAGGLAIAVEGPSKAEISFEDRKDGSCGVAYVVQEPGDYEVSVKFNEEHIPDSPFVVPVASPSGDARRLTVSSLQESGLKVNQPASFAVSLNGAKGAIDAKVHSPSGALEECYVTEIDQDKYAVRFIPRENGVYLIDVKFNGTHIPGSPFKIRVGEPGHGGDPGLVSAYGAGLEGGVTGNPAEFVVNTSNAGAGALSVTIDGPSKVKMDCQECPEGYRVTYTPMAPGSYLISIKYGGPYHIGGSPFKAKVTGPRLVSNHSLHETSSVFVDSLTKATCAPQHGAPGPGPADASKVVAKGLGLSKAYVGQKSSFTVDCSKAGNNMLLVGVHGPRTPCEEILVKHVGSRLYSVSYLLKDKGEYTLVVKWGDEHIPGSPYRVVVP
The experiment in a line: pull-down; GST-His- or MBP-His-FilGAP constructs (various concentrations) with 25 nM FLAG-FLNa on FLAG-specific mAb M2 agarose; 50 mM Tris-HCl, 150 mM NaCl, 0.1% Triton X-100, 0.1 mM EGTA, pH 7.4, 1 h, 25°C; immunoblot for GST or MBP. As to conditions: both partners purified. On the technique in general: A western blot detects proteins with antibodies after separation by electrophoresis.

Data set [3] concerns the target T2, FLAG-FLNa L2439M (disease-related) (human, UniProt P21333 1-2647, L2439M).
T2 construct: filamin A (FLNa), human, full length, transcript of the patient mutation 7315C>A; source: Sf9 cells, purified
The experiment in a line: pull-down; full-length FilGAP or His-FilGAP lacking 649–725 (50 nM in Figure 1C) mixed with increasing amounts of wild-type or mutant FLAG-FLNa, precipitated with FLAG-specific mAb on agarose; immunoblot for FilGAP or the His tag. As to conditions: both partners purified.

Data set [4] deals with the molecule itself. Kind of data set: SEC; Superose 6 10/300 GL, 20 mM Tris-HCl pH 7.4, 150 mM NaCl, 0.5 mM EGTA, 4°C; size from calibration with standards. In general terms: Size exclusion chromatography separates by hydrodynamic size, large species first.

T2 sequence (P21333 whole entry L2439M): as the sequence (P21333 whole entry) above, with L2439M counted along it

Turning to filamin A (from UniProt P21333), in data set [1], the Kd (commonly a measure of binding affinity in units of concentration) is 200 nM.

B1: GST-His-FilGAP 649–748 (C-terminal 100 residues) (domain or fragment, human, UniProt Q8N264 649-748, looked up)
chain: SSLKQEMTKQKIEYESRIKSLEQRNLTLETEMMSLHDELDQERKKFTMIEIKMRNAERAKEDAEKRNDMLQKEMEQFFSTFGELTVEPRRTERGNTIWIQ
notes: FilGAP, human, C-terminal 100 residues; also called GST-FilGAP fragment; source: E. coli (pGEX-4T-3-HT), purified
As for B1, the binding result in data set [2] is recorded as “binds”.

B2: full-length FilGAP, purified from Sf9 insect cells (natural protein, human, UniProt Q8N264 1-748, looked up)
chain: MEENNDSTENPQQGQGRQNAIKCGWLRKQGGFVKTWHTRWFVLKGDQLYYFKDEDETKPLGTIFLPGNKVSEHPCNEENPGKFLFEVVPGGDRDRMTANHESYLLMASTQNDMEDWVKSIRRVIWGPFGGGIFGQKLEDTVRYEKRYGNRLAPMLVEQCVDFIRQRGLKEEGLFRLPGQANLVKELQDAFDCGEKPSFDSNTDVHTVASLLKLYLRELPEPVIPYAKYEDFLSCAKLLSKEEEAGVKELAKQVKSLPVVNYNLLKYICRFLDEVQSYSGVNKMSVQNLATVFGPNILRPKVEDPLTIMEGTVVVQQLMSVMISKHDCLFPKDAELQSKPQDGVSNNNEIQKKATMGQLQNKENNNTKDSPSRQCSWDKSESPQRSSMNNGSPTALSGSKTNSPKNSVHKLDVSRSPPLMVKKNPAFNKGSGIVTNGSFSSSNAEGLEKTQTTPNGSLQARRSSSLKVSGTKMGTHSVQNGTVRMGILNSDTLGNPTNVRNMSWLPNGYVTLRDNKQKEQAGELGQHNRLSTYDNVHQQFSMMNLDDKQSIDSATWSTSSCEISLPENSNSCRSSTTTCPEQDFFGGNFEDPVLDGPPQDDLSHPRDYESKSDHRSVGGRSSRATSSSDNSETFVGNSSSNHSALHSLVSSLKQEMTKQKIEYESRIKSLEQRNLTLETEMMSLHDELDQERKKFTMIEIKMRNAERAKEDAEKRNDMLQKEMEQFFSTFGELTVEPRRTERGNTIWIQ
notes: FilGAP, human, full length; Tag-free FilGAP was prepared from His-FilGAP with TEV protease; also called Purified FilGAP; source: Sf9 cells, purified (Ni-NTA)
On to B2, for which the binding result in data set [3] is given as “binds”.

B3: His-tag full-length FilGAP (natural protein, human, UniProt Q8N264 1-748, looked up)
chain: B2 chain
notes: FilGAP, human, full length; also called His-FilGAP; His-tag FilGAP; source: Sf9 cells, purified (Ni-NTA)
Regarding B3, the stoichiometry N (in general, a count of units in the complex or per binding partner) in data set [4] came to 2.
